Results reported in patent publication US20220409694A1, “POLYPEPTIDE, AND PREPARATION METHOD THEREFOR AND USE THEREOF” (SHANXI JINBO BIO-PHARMACEUTICAL CO., LTD., priority 2020, published 2022).

How the values were obtained:
Assay in all cases: cell-based or functional assay
[1] = target: Rs3367-CoV S protein (pcDNA3.1-Rs3367-CoV-S, on pseudovirus) (Rs3367-CoV (SARS-like virus from bats))
[2] = target: WIV1-CoV S protein (pcDNA3.1-WIV1-CoV-S, on pseudovirus) (WIV1-CoV (SARS-like virus from bats))
[3] = target: SARS-CoV S protein (pcDNA3.1-SARS-CoV-S, on pseudovirus) (SARS-CoV), P59594

Binder SLDQINVTFLDLEYEMKKLEEAIKKLEESYIDLKEL (modifications not checked) [EK1] has an Inhibitory Activity, IC50 (pseudovirus infection of HuH7, luciferase) [1] of 4000 nM, an Inhibitory Activity, IC50 (pseudovirus infection of HuH7, luciferase) [2] of 2940 nM and an Inhibitory Activity, IC50 (pseudovirus infection of HuH7, luciferase) [3] of 1890 nM.
